Source: publication PMC11507878

Target: GST-fused Par-6 CRIB-PDZ (UniProt O97111)
Experiment: pull-down

- fold increase of binding with Par-3 PDZ2 against without: > 20 fold
Substance: Par complex ΔCRIB-PDZ (full length aPKC with the Par-6 PB1 domain) (from UniProt A1Z9X0 1-606)
